For the series, the target named is T1, Thyroid hormone receptor beta (THRβ), recombinant (Homo sapiens, UniProt P10828 1-461).
T1 sequence: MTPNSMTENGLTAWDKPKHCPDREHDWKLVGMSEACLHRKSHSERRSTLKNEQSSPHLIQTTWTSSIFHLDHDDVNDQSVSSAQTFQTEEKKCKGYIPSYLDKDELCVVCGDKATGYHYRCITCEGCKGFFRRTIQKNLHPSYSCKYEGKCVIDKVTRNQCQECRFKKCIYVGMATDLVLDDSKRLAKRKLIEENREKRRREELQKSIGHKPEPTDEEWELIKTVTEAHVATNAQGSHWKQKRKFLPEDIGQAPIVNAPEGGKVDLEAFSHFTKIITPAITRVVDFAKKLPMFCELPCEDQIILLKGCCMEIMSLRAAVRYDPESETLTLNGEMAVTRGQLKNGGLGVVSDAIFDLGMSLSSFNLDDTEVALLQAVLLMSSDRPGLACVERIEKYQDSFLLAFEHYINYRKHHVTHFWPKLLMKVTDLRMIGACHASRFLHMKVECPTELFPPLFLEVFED
The experiment in a line: EMSA. (In general: Mobility shift assays separate free from complexed probe on a gel.)

B1: rs717-G (dsDNA)
DNA 1: CCCGGTCAGGACCACGGTGACCATGAGGGCG
DNA 2: CGCCCTCATGGTCACCGTGGTCCTGACCGGG
In the case of B1, the binding result is “binds”.

The record behind these values is article PMC6644155.
